Test [1] deals with T1, Recombinant human IL-13 (R&D Systems, MN, catalog no. 213-ILB/CF) (human, UniProt P35225 33-146).
T1 construct: also called recombinant IL-13
The experiment in a line: sandwich pair screen, 100 pg/mL recombinant IL-13 against blank, binder is detection Ab 11H4; capture Ab 228B/C.

Test [2] concerns the target T1, Recombinant human IL-13 (R&D Systems, …). Kind of test: sandwich pair screen, 100 pg/mL recombinant IL-13 against blank, binder is detection Ab 11H4; capture Ab MILR1444A.
Test [3] has as its target T2, native IL-13 in human serum (human, UniProt P35225 33-146).
T2 construct: Endogenous IL-13 in serum of healthy volunteers and of patients with asthma, IPF or atopic dermatitis; also called serum IL-13; endogenous IL-13
The experiment in a line: pre-incubation of serum with excess (100 ug/mL) capture antibody for 1 h at room temperature, then IMPACT IL-13 sandwich assay.

T1 sequence (P35225 other isoform, or with tags, fused parts or gaps): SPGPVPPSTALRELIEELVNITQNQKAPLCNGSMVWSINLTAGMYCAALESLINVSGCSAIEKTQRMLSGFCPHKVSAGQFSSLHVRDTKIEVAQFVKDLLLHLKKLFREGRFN
T2 sequence (P35225 other isoform, or with tags, fused parts or gaps): as above

B1: 11H4 (anti-IL-13 mu11H4) (antibody, IgG1, V domains shown)
VH: QVTLKESGPGILQPSQTLSLTCSFSGFSLSTSDMGVGWIRQPSGKGLEWLAHIWWDDVKRYNPALKSRLTISKDTSSSQVFLKIASVDTADTATYYCARIGTNYGYDGLFDYWGQGTTLTVSS
VL: DIVLTQSPASLAVSLGQRATISCRASQSVSTSSYSYMNWYQQTPGQPPKLLIKYASNLESGIPARFSGSGSGTDFTLNIHPVEEEDTATYYCQHSWEIPYTFGGGT
notes: Murine antibody; In the IMPACT IL-13 assay it was used as full-length IgG1 labelled with digoxigenin
As for B1, the positive/negative ratio in test [1] is 317; in test [2], 22800.

B2: biotinylated lebrikizumab F(ab')2 (other)
VH: VTLRESGPALVKPTQTLTLTCTVSGFSLSAYSVNWIRQPPGKALEWLAMIWGDGKIVYNSALKSRLTISKDTSKNQVVLTMTNMDPVDTATYYCAGDGYYPYAMDNWGQGSLVTVSS
VL: DIVMTQSPDSLSVSLGERATINCRASKSVDSYGNSFMHWYQQKPGQPPKLLIYLASNLESGVPDRFSGSGSGTDFTLTISSLQAEDVAVYYCQQNNEDPRTFGGGTKVEIK
modifications: biotinylated (sites not given)
notes: F(ab')2 fragment of lebrikizumab, the capture reagent of the IMPACT IL-13 assay; also called capture antibody; first antibody
As for B2, the binding result in test [3] was “binds”.

The values are drawn from US20180356429A1 (Genentech, published 2018).
